The values below come from PMC6056499, “A systematic dissection of sequence elements determining β-Klotho and FGF interaction and signaling” (Scientific Reports, 2018).

The target of this test is mature human FGF21 (UniProt Q9NSA1). In words: solid-phase binding assay. The settings on record: β-Klotho captured from conditioned media; parent: est. 1.0; read off a plot.

In the case of “human β-Klotho extracellular domain (aa1–992) fused with a 6 × His tag at the C-terminus (from UniProt Q86Z14) 861R-A”, the ratio to parent came to 15.

On to “human β-Klotho extracellular domain (aa1–992) fused with a 6 × His tag at the C-terminus (from UniProt Q86Z14) 431T-R”, for which the ratio to parent came to 10.

As for “human β-Klotho extracellular domain (aa1–992) fused with a 6 × His tag at the C-terminus (from UniProt Q86Z14) 381P-R”, the ratio to parent was determined as 21.

With “human β-Klotho extracellular domain (aa1–992) fused with a 6 × His tag at the C-terminus (from UniProt Q86Z14) 389G-R”, the ratio to parent was 3.5.

On to “human β-Klotho extracellular domain (aa1–992) fused with a 6 × His tag at the C-terminus (from UniProt Q86Z14) 862L-R”, for which the ratio to parent was found to be 25.

For the substance “human β-Klotho extracellular domain (aa1–992) fused with a 6 × His tag at the C-terminus (from UniProt Q86Z14) 380K-A”, the ratio to parent is 35.

For “human β-Klotho extracellular domain (aa1–992) fused with a 6 × His tag at the C-terminus (from UniProt Q86Z14) 862L-A”, the ratio to parent is 6.

For “human β-Klotho extracellular domain (aa1–992) fused with a 6 × His tag at the C-terminus (from UniProt Q86Z14) 531E-A”, the ratio to parent was 4.5.

In the case of “human β-Klotho extracellular domain (aa1–992) fused with a 6 × His tag at the C-terminus (from UniProt Q86Z14) 437K-R”, the ratio to parent worked out at 5.

“human β-Klotho extracellular domain (aa1–992) fused with a 6 × His tag at the C-terminus (from UniProt Q86Z14) 437K-A”: the ratio to parent worked out at 270.

As for “human β-Klotho extracellular domain (aa1–992) fused with a 6 × His tag at the C-terminus (from UniProt Q86Z14) 389G-A”, the ratio to parent stood at 30.

Regarding “human β-Klotho extracellular domain (aa1–992) fused with a 6 × His tag at the C-terminus (from UniProt Q86Z14) 381P-A”, the ratio to parent was determined as 5.
